Results on 21 molecules are retold here after patent publication US20200095340A1.

For this experiment, the target named is biotinylated human DLL3 protein expressed as a human IgG1 fusion protein (human) (UniProt Q9NYJ7). The experiment can be described thus: Octet BLI; biotinylated huDLL3-IgG1 fusion on streptavidin tips; single 50 nM; conditioned medium.
biotinylated human DLL3 protein expressed as a human IgG1 fusion protein (human), sequence (Q9NYJ7 other isoform, or with tags, fused parts or gaps): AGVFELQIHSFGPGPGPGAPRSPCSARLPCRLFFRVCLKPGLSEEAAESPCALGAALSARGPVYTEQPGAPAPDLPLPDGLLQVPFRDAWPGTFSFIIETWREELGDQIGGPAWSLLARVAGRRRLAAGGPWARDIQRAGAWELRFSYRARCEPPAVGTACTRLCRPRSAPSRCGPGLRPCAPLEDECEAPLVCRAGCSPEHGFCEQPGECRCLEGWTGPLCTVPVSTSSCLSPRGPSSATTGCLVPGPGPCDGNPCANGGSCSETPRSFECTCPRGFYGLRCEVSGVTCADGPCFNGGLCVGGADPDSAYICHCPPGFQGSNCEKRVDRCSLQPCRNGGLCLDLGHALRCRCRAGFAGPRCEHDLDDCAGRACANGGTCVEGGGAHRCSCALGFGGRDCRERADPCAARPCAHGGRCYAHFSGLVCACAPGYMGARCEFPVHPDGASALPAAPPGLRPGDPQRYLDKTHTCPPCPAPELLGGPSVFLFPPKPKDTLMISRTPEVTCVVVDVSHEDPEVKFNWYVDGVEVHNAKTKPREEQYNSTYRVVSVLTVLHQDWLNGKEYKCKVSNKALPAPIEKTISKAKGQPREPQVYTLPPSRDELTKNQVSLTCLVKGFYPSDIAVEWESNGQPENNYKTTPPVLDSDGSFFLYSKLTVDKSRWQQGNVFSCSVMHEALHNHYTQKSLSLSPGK

B1: anti-DLL3 trispecific protein 4E08 (protein, part only; not given: anti-CD3 fragment and anti-albumin sdAb, part only)
chain, part: EVQLVESGGGLVQPGGSLTLSCAASGSSVKFLSMAWYRQAPGKKRELVAGISTDGSTDYIDSVKGRFTISRDNAKNSVYLQMNSLRAEDTAVYYCYAYKWTTRYTYWGQGTLVTVSSGGGGSGGGSGGGGSGGGSHHHHHH
Regarding B1, the dissociation constant Kd amounted to 7.2 nM.

B2: anti-DLL3 trispecific protein 3C09 (protein, part only; not given: anti-CD3 and anti-albumin domains, part only)
chain, part: EVQLVESGGGLVQPGGSLTLSCAASGSSVSFLSMAWYRQAPGKKRELVAGISADGSTIYIDSVKGRFTISRDNAKNSVYLQMNSLRAEDTAVYYCYAYRWRTRYTYWGQGTLVTVSSGGGGSGGGSGGGGSGGGSHHHHHH
B2 had a Kd of 7.8 nM.

B3: anti-DLL3 trispecific protein 4G08 (protein, part only; not given: anti-CD3 fragment and anti-albumin sdAb, part only)
chain, part: EVQLVESGGGLVQPGGSLTLSCAASGSSVRFLSMAWYRQAPGKKRELVAGISTDGSTDYIDSVKGRFTISRDNAKNSVYLQMNSLRAEDTAVYYCYAYRWTTRYRYWGQGTLVTVSSGGGGSGGGSGGGGSGGGSHHHHHH
The molecule B3 had a Kd of 7.6 nM. This Kd and that of the molecule before are within 1.5-fold of each other.

B4: anti-DLL3 trispecific protein 3B05 (protein, part only; not given: anti-CD3 and anti-albumin domains, part only)
chain, part: EVQLVESGGGLVQPGGSLTLSCVASGSSVKFLSMAWYRQAPGKKRELVAGISADGSTTYIDSVKGRFTISRDNAKNSVYLQMNSLRAEDTAVYYCYAYRWTTRRTYWGQGTLVTVSSGGGGSGGGSGGGGSGGGSHHHHHH
For B4, the dissociation constant (Kd) worked out at 7.2 nM.

B5: anti-DLL3 trispecific protein 4D06 (protein, part only; not given: anti-CD3 fragment and anti-albumin sdAb, part only)
chain, part: EVQLVESGGGLVQPGGSLTLSCAASGSSVKFLSMAWYRQAPGKKRELVAGISPDGSTDYIDSVKGRFTISRDNAKNSVYLQMNSLRAEDTAVYYCYAYRWTTRYRYWGQGTLVTVSSGGGGSGGGSGGGGSGGGSHHHHHH
In turn, B5 came in with a Kd of 7.5 nM.

B6: anti-DLL3 trispecific protein 3F05 (protein, part only; not given: CD3 binder and albumin binder, part only)
chain, part: EVQLVESGGGLVQPGGSLTLSCAASGSKVSFLSMAWYRQAPGKKRELVAGISTDGSTDYIDSVKGRFTISRDNAKNSVYLQMNSLRAEDTAVYYCYAYRWTTRRTYWGQGTLVTVSSGGGGSGGGSGGGGSGGGSHHHHHH
For B6, the dissociation constant (Kd) came out at 7.5 nM.

B7: anti-DLL3 trispecific protein 4G011 (protein, part only; not given: anti-CD3 fragment and anti-albumin sdAb, part only)
chain, part: EVQLVESGGGLVQPGGSLTLSCAASGSSVRFLSMAWYRQAPGKKRELVAGISADGSTDYIGSVKGRFTISRDNAKNSVYLQMNSLRAEDTAVYYCYAYRWSTRYTYWGQGTLVTVSSGGGGSGGGSGGGGSGGGSHHHHHH
In turn, B7 came in with a Kd of 7.5 nM.

B8: anti-DLL3 trispecific protein 3B07 (protein, part only; not given: anti-CD3 fragment and anti-albumin sdAb, part only)
chain, part: EVQLVESGGGLVQPGGSLTLSCAASGSRVSFLSMAWYRQAPGKKRELVAGISADGSTTYIDSVKGRFTISRDNAKNSVYLQMNSLRAEDTAVYYCYAYRWTTRYTYWGQGTLVTVSSGGGGSGGGSGGGGSGGGSHHHHHH
B8 gave an equilibrium dissociation constant (Kd) of 7.3 nM.

B9: anti-DLL3 trispecific protein 4C07 (protein, part only; not given: anti-CD3 and anti-albumin domains, part only)
chain, part: EVQLVESGGGLVQPGGSLTLSCAASGSKVSFLSMAWYRQAPGKKRELVAGISADGSKDYIDSVKGRFTISRDNAKNSVYLQMNSLRAEDTAVYYCYAYRWTTRLTYWGQGTLVTVSSGGGGSGGGSGGGGSGGGSHHHHHH
Take B9: the equilibrium dissociation constant (Kd) was determined as 7.5 nM.

B10: anti-DLL3 trispecific protein 3G09 (protein, part only; not given: CD3 fragment and albumin sdAb, part only)
chain, part: EVQLVESGGGLVQPGGSLTLSCAASGSSVSVLSMAWYRQAPGKKRELVAGISADGSTDYIGSVKGRFTISRDNAKNSVYLQMNSLRAEDTAVYYCYAYRWTTRTTYWGQGTLVTVSSGGGGSGGGSGGGGSGGGSHHHHHH
Consider B10, for which the Kd turned out to be 7.3 nM.

B11: anti-DLL3 trispecific protein 2B012 (protein, part only; not given: anti-CD3 and anti-albumin domains, part only)
chain, part: EVQLVESGGGLVQPGGSLTLSCVASGTTSSINAMGWYRRAPGKQRELVAGISSDGSKVYNDSVKGRFTISRDNAKNSVYLQMNSLRAEDTAVYYCYYFRTVRGSSMRYWGQGTLVTVSSGGGGSGGGSGGGGSGGGSHHHHHH
B11 registered a Kd of 7.3 nM.

B12: anti-DLL3 trispecific protein 2A08 (protein, part only; not given: anti-CD3 and anti-albumin domains, part only)
chain, part: EVQLVESGGGLVQPGGSLTLSCVASGSTKSINAMGWYRRAPGKQRELVAGISSDGSKVYRDSVKGRFTISRDNAKNSVYLQMNSLRAEDTAVYYCYYFRTSSGSSMRYWGQGTLVTVSSGGGGSGGGSGGGGSGGGSHHHHHH
Turning to B12, the Kd turned out to be 7.7 nM.

B13: anti-DLL3 trispecific protein 2H06 (protein, part only; not given: anti-CD3 fragment and anti-albumin domain, part only)
chain, part: EVQLVESGGGLVQPGGSLTLSCVASGSTSTINAMGWYRRAPGKQRELVAGISSDGSKVYADSVKGRFTISRDNAKNSVYLQMNSLRAEDTAVYYCYYFRTASGSSMRYWGQGTLVTVSSGGGGSGGGSGGGGSGGGSHHHHHH
Regarding B13, the equilibrium dissociation constant (Kd) was 7.9 nM.

B14: anti-DLL3 trispecific protein 2G09 (protein, part only; not given: CD3 fragment and albumin sdAb, part only)
chain, part: EVQLVESGGGLVQPGGSLTLSCVASGSTSSINAMGWYRRAPGKQRELVAGVSSDGSKVYADSVKGRFTISRDNAKNSVYLQMNSLRAEDTAVYYCYYFRTVSGSSARYWGQGTLVTVSSGGGGSGGGSGGGGSGGGSHHHHHH
B14 yielded a dissociation constant (Kd) of 8 nM.

B15: anti-DLL3 trispecific protein 2B03 (protein, part only; not given: CD3 fragment and albumin sdAb, part only)
chain, part: EVQLVESGGGLVQPGGSLTLSCVASGSTSSINAMGWYRRAPGKQRELVAGISSDGSLVYADSVKGRFTISRDNAKNSVYLQMNSLRAEDTAVYYCYYFTTVSGSSMRYWGQGTLVTVSSGGGGSGGGSGGGGSGGGSHHHHHH
B15: the dissociation constant (Kd) is 7.6 nM.

B16: anti-DLL3 trispecific protein 1C011 (protein, part only; not given: anti-CD3 fragment and anti-albumin domain, part only)
chain, part: EVQLVESGGGLVQPGGSLTLSCVASGTTSSINAMGWYRRAPGKQRELVAGISSDGSKVYEDSVKGRFTISRDNAKNSVYLQMNSLRAEDTAVYYCYYFRTVSGSSMRYWGQGTLVTVSSGGGGSGGGSGGGGSGGGSHHHHHH
For the molecule B16, the equilibrium dissociation constant (Kd) was 7.6 nM.

B17: anti-DLL3 trispecific protein 2B05 (protein, part only; not given: anti-CD3 fragment and anti-albumin domain, part only)
chain, part: EVQLVESGGGLVQPGGSLTLSCVASGTTSSINAMGWYRRAPGKQRELVAGISSDGTKVYADSVKGRFTISRDNAKNSVYLQMNSLRAEDTAVYYCYYFHTVSGSSMRYWGQGTLVTVSSGGGGSGGGSGGGGSGGGSHHHHHH
B17 showed a Kd of 7.4 nM.

B18: anti-DLL3 trispecific protein 2C010 (protein, part only; not given: CD3 binder and albumin binder, part only)
chain, part: EVQLVESGGGLVQPGGSLTLSCVASGSTSKINAMGWYRRAPGKQRELVAGISSDRSKVYADSVKGRFTISRDNAKNSVYLQMNSLRAEDTAVYYCYYFRTVAGSSMRYWGQGTLVTVSSGGGGSGGGSGGGGSGGGSHHHHHH
As to B18, the dissociation constant Kd was 7.6 nM.

B19: anti-DLL3 trispecific protein 2F07 (protein, part only; not given: anti-CD3 fragment and anti-albumin domain, part only)
chain, part: EVQLVESGGGLVQPGGSLTLSCVASGSTSSINAVGWYRRAPGKQRELVAGISSDGSSVYADSVKGRFTISRDNAKNSVYLQMNSLRAEDTAVYYCYYFRTVSTSSMRYWGQGTLVTVSSGGGGSGGGSGGGGSGGGSHHHHHH
As for B19, the Kd turned out to be 8 nM. The Kd values of the last two molecules are within 1.5-fold of each other.

B20: anti-DLL3 trispecific protein 1A04 (protein, part only; not given: anti-CD3 fragment and anti-albumin sdAb, part only)
chain, part: EVQLVESGGGLVQPGGSLTLSCVASGSTSSINAMGWYRRAPGKQRELVAGISSDGSKVYEDSVKGRFTISRDNAKNSVYLQMNSLRAEDTAVYYCYYFRTVSGSSMRYWGQGTLVTVSSGGGGSGGGSGGGGSGGGSHHHHHH
For the molecule B20, the Kd was 7.8 nM. The Kd values of the last two molecules are within 1.5-fold of each other.

B21: anti-DLL3 trispecific protein 2D010 (protein, part only; not given: CD3 binder and albumin binder, part only)
chain, part: EVQLVESGGGLVQPGGSLTLSCVASGSTSSINAMGWYRRAPGKQRELVAGISSDGSKVYADSVKGRFTISRDNAKNSVYLQMNSLRAEDTAVYYCYYFRTKSGSSMRYWGQGTLVTVSSGGGGSGGGSGGGGSGGGSHHHHHH
B21 came in with a dissociation constant (Kd) of 7.3 nM.

The Kd is the free concentration of one partner at which half of the binding sites on the other are occupied at equilibrium, for simple one-to-one binding. Low readings indicate tighter binding, high ones weaker binding.
